Patent US12269859B2, “Synthetic immune receptors and methods of use thereof” (Angeles Therapeutics, Inc., priority 2016, dated 2025)

B1: 101416-A05 (protein)
chain: MALPVTALLLPLALLLHAARPQSVLTQPPSVSGAPGQRVTISCTGSSSNIGAGFDVHWYQQLPGTAPKLLIYGNSNRPSGVPDRFSGSKSGTSASLAITGLQAEDEADYYCQSYDSSLSGYVFGTGTKVTVLGLEEQKLISEEDLGSGEDLKNVFPPEVAVFEPSKAEIAHTQKATLVCLATGFYPDHVELSWWVNGKEVHSGVCTDPQPLKEQPALNDSRYCLSSRLRVSATFWQNPRNHFRCQVQFYGLSENDEWTQDRAKPVTQIVSAEAWGRADCGITSASYHQGVLSATILYEILLGKATLYAVLVSALVLMAMVKRKDSRGRAKRSGSGATNFSLLKQAGDVEENPGPTSMDWIWRILFLVGAATGAHSFEQVQLVQSGAEVKKPGASVKVSCKASGYTFTDYYMHWVRQAPGQRLEWMGWINPNSGGTNYAQKFQDRITVTRDTSSNTGYMELTRLRSDDTAVYYCARSPYSGVLDKWGQGTLVTVSSTREQKLISEEDLGSGIQNPDPAVYQLRDSKSSDKSVCLFTDFDSQTNVSQSKDSDVYITDKCVLDMRSMDFKSNSAVAWSNKSDFACANAFNNSIIPEDTFFPSSDVPCDVKLVEKSFETDTNLNFQNLSVIGFRILLLKVAGFNLLMTLRLWSSRAKRSGSGVKQTLNFDLLKLAGDVESNPGPSRGHMTEYKPTVRLATRDDVPRAVRTLAAAFADYPATRHTVDPDRHIERVTELQELFLTRVGLDIGKVWVADDGAAVAVWTTPESVEAGAVFAEIGPRMAELSGSRLAAQQQMEGLLAPHRPKEPAWFLATVGVSPDHQGKGLGSAVVLPGVEAAERAGVPAFLETSAPRNLPFYERLGFTVTADVEVPEGPRTWCMTRKPGA
modifications: Synthetic Immune Receptor (SIR)
B2: 102116-D01 (protein)
chain: MALPVTALLLPLALLLHAARPLEGKPIPNPLLGLDSTGSGEDLKNVFPPEVAVFEPSKAEIAHTQKATLVCLATGFYPDHVELSWWVNGKEVHSGVCTDPQPLKEQPALNDSRYCLSSRLRVSATFWQNPRNHFRCQVQFYGLSENDEWTQDRAKPVTQIVSAEAWGRADCGITSASYHQGVLSATILYEILLGKATLYAVLVSALVLMAMVKRKDSRGRAKRSGSGATNFSLLKQAGDVEENPGPTSTMALPVTALLLPLALLLHAARPQAVLTQPPSASGTPGQRVTISCSGSSSNIGSYTVSWYQQLPGTAPKFLIYSNNQRPSGVPDRFSGSKSGTSASLAISGLQSEDEADYYCAAWDDSLNGYVFGTGTKVTVLGGGGGSGGGGSGGGGSEVQLVQSGAEVKKPGESLKISCKGSGYDFTTYWIGWVRQMPGKGLEWMGIIYPGDSDTRYSPSVRGRVTISADKSINTAYLQWSSLEASDTAMYYCARMWTFSQDGWGQGTLVTVSSTREQKLISEEDGSGIQNPDPAVYQLRDSKSSDKSVCLFTDFDSQTNVSQSKDSDVYITDKCVLDMRSMDFKSNSAVAWSNKSDFACANAFNNSIIPEDTFFPSSDVPCDVKLVEKSFETDTNLNFQNLSVIGFRILLLKVAGFNLLMTLRLWSSRAKRSGSGVKQTLNFDLLKLAGDVESNPGPSRGHMTEYKPTVRLATRDDVPRAVRTLAAAFADYPATRHTVDPDRHIERVTELQELFLTRVGLDIGKVWVADDGAAVAVWTTPESVEAGAVFAEIGPRMAELSGSRLAAQQQMEGLLAPHRPKEPAWFLATVGVSPDHQGKGLGSAVVLPGVEAAERAGVPAFLETSAPRNLPFYERLGFTVTADVEVPEGPRTWCMTRKPGA
modifications: Synthetic Immune Receptor (SIR)
B3: 012417-J04 (protein)
chain: MALPVTALLLPLALLLHAARPLEGKPIPNPLLGLDSTGSGEDLKNVFPPEVAVFEPSKAEIAHTQKATLVCLATGFYPDHVELSWWVNGKEVHSGVCTDPQPLKEQPALNDSRYCLSSRLRVSATFWQNPRNHFRCQVQFYGLSENDEWTQDRAKPVTQIVSAEAWGRADCGITSASYHQGVLSATILYEILLGKATLYAVLVSALVLMAMVKRKDSRGRAKRSGSGATNFSLLKQAGDVEENPGPTSMALPVTALLLPLALLLHAARPSTVMTQSPDSLAVSLGERATINCKSSQSNSNDVAWYQQKPGQSPKVLIYFASNRYSGVPDRFSGSGYGTDFTLTISSLQAEDVAVYFCQQDYSSPLTFGAGTKLELKRADAGGGGSGGGGSGGGGSQIQLVQSGSELKKPGASVKVSCKASGYTFTNFGVNWVRQAPGKGLEWMGWINTYTGEPSYAQGFTGRFVFSLDASVSTAYLQISSLKAEDTATYFCTRRTNYYGTSYYYAMDYWGQGTTVTVSSAKTTTREQKLISEEDGSGIQNPDPAVYQLRDSKSSDKSVCLFTDFDSQTNVSQSKDSDVYITDKCVLDMRSMDFKSNSAVAWSNKSDFACANAFNNSIIPEDTFFPSSDVPCDVKLVEKSFETDTNLNFQNLSVIGFRILLLKVAGFNLLMTLRLWSSRAKRSGSGVKQTLNFDLLKLAGDVESNPGPSRGHMTEYKPTVRLATRDDVPRAVRTLAAAFADYPATRHTVDPDRHIERVTELQELFLTRVGLDIGKVWVADDGAAVAVWTTPESVEAGAVFAEIGPRMAELSGSRLAAQQQMEGLLAPHRPKEPAWFLATVGVSPDHQGKGLGSAVVLPGVEAAERAGVPAFLETSAPRNLPFYERLGFTVTADVEVPEGPRTWCMTRKPGA
B4: 110217-B04 (protein)
chain: MALPVTALLLPLALLLHAARPDVVMTQSPSSLSASVGDRVTITCRASQDISKYLNWYQQKPGKAPKLLIYHTSRLHSGVPSRFSGSGSGTDFTLTISSLQPEDFATYYCQQGNTLPYTFGGGTKVEIKLEDLKNVFPPEVAVFEPSEAEISHTQKATLVCLATGFYPDHVELSWWVNGKEVHSGVSTCPQPLKEQPALNDSRYCLSSRLRVSATFWQNPRNHFRCQVQFYGLSENDEWTQDRAKPVTQIVSAEAWGRADCGFTSESYQQGVLSATILYEILLGKATLYAVLVSALVLMAMVKRKDSRGRAKRSGSGATNFSLLKQAGDVEENPGPTSMDWIWRILFLVGAATGAHSFEQVQLQESGPGLVKPSQTLSLTCTVSGVSLPDYGVSWIRQPPGKGLEWIGVIWGSETTYYNSALKSRVLISVDTSKNQVSLKLSSVTAADTAVYYCARHYYYGGSYAMDYWGQGTTVTVSSTRIQNPDPAVYQLRDSKSSDKSVCLFTDFDSQTNVSQSKDSDVYICDKTVLDMRSMDFKSNSAVAWSNKSDFACANAFNNSIIPEDTFFPSPESSCDVKLVEKSFETDTNLNFQNLSVIGFRILLLKVAGFNLLMTLRLWSS
B5: 110217-C03 (protein)
chain: MALPVTALLLPLALLLHAARPDVVMTQSPSSLSASVGDRVTITCRASQDISKYLNWYQQKPGKAPKLLIYHTSRLHSGVPSRFSGSGSGTDFTLTISSLQPEDFATYYCQQGNTLPYTFGGGTKVEIKLEDLKNVFPPEVAVFEPSEAEISHTQKATLVCLATGFYPDHVELSWWVNGKEVHSGVSTDPQPLKEQPALNDSRYCLCSRLRVSATFWQNPRNHFRCQVQFYGLSENDEWTQDRAKPVTQIVSAEAWGRADCGFTSESYQQGVLSATILYEILLGKATLYAVLVSALVLMAMVKRKDSRGRAKRSGSGATNFSLLKQAGDVEENPGPTSMDWIWRILFLVGAATGAHSFEQVQLQESGPGLVKPSQTLSLTCTVSGVSLPDYGVSWIRQPPGKGLEWIGVIWGSETTYYNSALKSRVLISVDTSKNQVSLKLSSVTAADTAVYYCARHYYYGGSYAMDYWGQGTTVTVSSTRIQNPDPAVYQLRDSKSSDKSVCLFTDFDSQTNVSQSKDSDVYICDKTVLDMRSMDFKSNSAVAWSNKSDFACANAFNNSIIPEDTFFPSPESSCDVKLVEKSFETDTNLNFQNLSVIGFRILLLKVAGFNLLMTLRLWSS
B6: 110217-D01 (protein)
chain: MALPVTALLLPLALLLHAARPDVVMTQSPSSLSASVGDRVTITCRASQDISKYLNWYQQKPGKAPKLLIYHTSRLHSGVPSRFSGSGSGTDFTLTISSLQPEDFATYYCQQGNTLPYTFGGGTKVEIKLEDLKNVFPPEVAVFEPCEAEISHTQKATLVCLATGFYPDHVELSWWVNGKEVHSGVSTDPQPLKEQPALNDSRYCLSSRLRVSATFWQNPRNHFRCQVQFYGLSENDEWTQDRAKPVTQIVSAEAWGRADCGFTSESYQQGVLSATILYEILLGKATLYAVLVSALVLMAMVKRKDSRGRAKRSGSGATNFSLLKQAGDVEENPGPTSMDWIWRILFLVGAATGAHSFEQVQLQESGPGLVKPSQTLSLTCTVSGVSLPDYGVSWIRQPPGKGLEWIGVIWGSETTYYNSALKSRVLISVDTSKNQVSLKLSSVTAADTAVYYCARHYYYGGSYAMDYWGQGTTVTVSSTRIQNPDPAVCQLRDSKSSDKSVCLFTDFDSQTNVSQSKDSDVYITDKTVLDMRSMDFKSNSAVAWSNKSDFACANAFNNSIIPEDTFFPSPESSCDVKLVEKSFETDTNLNFQNLSVIGFRILLLKVAGFNLLMTLRLWSS
B7: 092517-F01 (protein)
chain: MALPVTALLLPLALLLHAARPLEGKPIPNPLLGLDSTGSGEDLKNVFPPEVAVFEPSKAEIAHTQKATLVCLATGFYPDHVELSWWVNGKEVHSGVCTDPQPLKEQPALNDSRYCLSSRLRVSATFWQNPRNHFRCQVQFYGLSENDEWTQDRAKPVTQIVSAEAWGRADCGITSASYHQGVLSATILYEILLGKATLYAVLVSALVLMAMVKRKDSRGRAKRSGSGATNFSLLKQAGDVEENPGPTSMALPVTALLLPLALLLHAARPDVVMTQSPSSLSASVGDRVTITCRASQDISKYLNWYQQKPGKAPKLLIYHTSRLHSGVPSRFSGSGSGTDFTLTISSLQPEDFATYYCQQGNTLPYTFGGGTKVEIKGGGGSGGGGSGGGGSQVQLQESGPGLVKPSQTLSLTCTVSGVSLPDYGVSWIRQPPGKGLEWIGVIWGSETTYYNSALKSRVLISVDTSKNQVSLKLSSVTAADTAVYYCARHYYYGGSYAMDYWGQGTTVTVSSTREQKLISEEDGSGIQNPDPAVYQLRDSKSSDKSVCLFTDFDSQTNVSQSKDSDVYITDKCVLDMRSMDFKSNSAVAWSNKSDFACANAFNNSIIPEDTFFPSSDVPCDVKLVEKSFETDTNLNFQNLSVIGFRILLLKVAGFNLLMTLRLWSSRAKRSGSGVKQTLNFDLLKLAGDVESNPGPSRGHMTEYKPTVRLATRDDVPRAVRTLAAAFADYPATRHTVDPDRHIERVTELQELFLTRVGLDIGKVWVADDGAAVAVWTTPESVEAGAVFAEIGPRMAELSGSRLAAQQQMEGLLAPHRPKEPAWFLATVGVSPDHQGKGLGSAVVLPGVEAAERAGVPAFLETSAPRNLPFYERLGFTVTADVEVPEGPRTWCMTRKPGA

Tested on: target antigen-expressing cell line
Assay: Jurkat NFAT-GFP assay, coculture with target cell lines expressing the respective target antigen (summary Table 10A)
Type: cell-based, human
Parameters: key: The signs +/−, +, 2+ etc. after the name of the cell lines indicate the relative degree of positivity on the Jurkat-NFAT-GFP assay as measured by the % GFP positive cells; +: relative degree of positivity on the Jurkat-NFAT-GFP assay as measured by the % GFP positive cells; 2+: relative degree of positivity on the Jurkat-NFAT-GFP assay as measured by the % GFP positive cells
Details: relative % GFP positive cells; for NFAT-GFP ASSAY Positive Cell lines: U266: SIR-expressing Jurkat-NFAT-GFP cells cocultured with U266; for NFAT-GFP ASSAY Positive Cell lines: RAJI: SIR-expressing Jurkat-NFAT-GFP cells cocultured with RAJI; for NFAT-GFP ASSAY Positive Cell lines: NALM6: SIR-expressing Jurkat-NFAT-GFP cells cocultured with NALM6
How it was run: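 Readout is % GFP+ cells by FACS, graded +/− to 2+ relative to parental reporter cells. Jurkat-NFAT-GFP cells stably transduced with SIR constructs (puromycin-selected) were mixed with target-antigen-expressing cell lines at roughly 1:2 effector:target and cocultured ~4–18 h.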

Row | Molecule | NFAT-GFP ASSAY Positive Cell lines: U266 | NFAT-GFP ASSAY Positive Cell lines: L363 (SIR-expressing Jurkat-NFAT-GFP cells cocultured with L363) | NFAT-GFP ASSAY Positive Cell lines: RAJI | NFAT-GFP ASSAY Positive Cell lines: NALM6
1 | B1 | U266 (+) |  |  | 
2 | B2 | (2+) | L363 (2+), U266 |  | 
3 | B3 |  |  | RAJI (+) | 
4 | B4 |  |  | RAJI (+/−), NALM6 | (+/−)
5 | B5 |  |  | RAJI (+/−), NALM6 | (+/−)
6 | B6 |  |  | RAJI (+/−), NALM6 | (+/−)
7 | B7 |  |  | RAJI (+), NALM6 (+) | RAJI (+), NALM6 (+)
